# Reference: the Immune Epitope Database (IEDB)
# Key:
# HLA-A*24:02 [1] = assay: IEDB peptide-MHC binding, purified MHC/competitive/fluorescence; filed as Kd, often an IC50 or EC50 that approximates it; ≥ and ≤ were set here for values at or beyond the usual limits of such assays
# HLA-B*07:02 [2] = assay: as above
# HLA-A*24:03 = assay: IEDB peptide-MHC binding, purified MHC/direct/fluorescence; filed as Kd, often an IC50 or EC50 that approximates it; ≥ and ≤ were set here for values at or beyond the usual limits of such assays
# HLA-C*04:01 = assay: as above
# HLA-C*05:01 = assay: as above; details: source organism: Mycobacterium tuberculosis C
# HLA-A*24:02 [3] = assay: IEDB peptide-MHC binding, purified MHC/competitive/fluorescence; ≥ and ≤ were set here for values at or beyond the usual limits of such assays; details: source organism: Bos taurus
# HLA-B*35:01 = assay: as above; details: source organism: Bos taurus
# HLA-C*07:02 = assay: IEDB peptide-MHC binding, purified MHC/direct/fluorescence; filed as Kd, often an IC50 or EC50 that approximates it; ≥ and ≤ were set here for values at or beyond the usual limits of such assays
# HLA-A*01:01 [4] = assay: as above
# HLA-A*03:01 = assay: as above; details: source organism: Camelpox virus M-96
# HLA-A*11:01 [5] = assay: as above
# HLA-A*31:01 [6] = assay: as above
# HLA-A*69:01 = assay: as above
# HLA-B*07:02 [7] = assay: as above
# HLA-B*40:01 = assay: as above
# HLA-B*46:01 = assay: as above; details: source organism: Camelpox virus M-96
# HLA-B*48:01 = assay: as above
# HLA-B*57:01 = assay: as above
# HLA-B*58:01 = assay: as above
# HLA-A*02:01 [8] = assay: IEDB peptide-MHC binding, purified MHC/competitive/fluorescence; filed as Kd, often an IC50 or EC50 that approximates it; ≥ and ≤ were set here for values at or beyond the usual limits of such assays
# HLA-A*02:06 = assay: as above
# HLA-A*26:02 [9] = assay: as above
# HLA-A*26:03 [10] = assay: as above; details: source organism: Vaccinia virus Copenhagen
# HLA-A*68:02 [11] = assay: as above
# HLA-B*08:01 [12] = assay: as above; details: source organism: Vaccinia virus Copenhagen
# HLA-B*15:01 = assay: as above
# HLA-B*15:17 [13] = assay: as above
# HLA-B*18:01 [14] = assay: as above; details: source organism: Vaccinia virus Copenhagen
# HLA-A*02:01 [15] = assay: IEDB peptide-MHC binding, purified MHC/direct/fluorescence; filed as Kd, often an IC50 or EC50 that approximates it; ≥ and ≤ were set here for values at or beyond the usual limits of such assays; details: source organism: Camelpox virus CMS
# HLA-A*26:01 = assay: as above; details: source organism: Variola virus
# HLA-A*68:02 [16] = assay: as above; details: source organism: Camelpox virus CMS
# HLA-B*08:01 [17] = assay: as above; details: source organism: Variola virus
# HLA-B*08:02 = assay: as above
# HLA-B*18:01 [18] = assay: as above; details: source organism: Camelpox virus CMS
# HLA-A*01:01 [19] = assay: IEDB peptide-MHC binding, purified MHC/competitive/fluorescence; filed as Kd, often an IC50 or EC50 that approximates it; ≥ and ≤ were set here for values at or beyond the usual limits of such assays; details: source organism: Vaccinia virus Tian Tan
# HLA-A*26:02 [20] = assay: IEDB peptide-MHC binding, purified MHC/direct/fluorescence; filed as Kd, often an IC50 or EC50 that approximates it; ≥ and ≤ were set here for values at or beyond the usual limits of such assays; details: source organism: Bacillus cereus NVH0597-99
# HLA-A*26:03 [21] = assay: as above; details: source organism: Bacillus cereus NVH0597-99
# HLA-B*08:03 = assay: as above; details: source organism: Bacillus cereus NVH0597-99
# HLA-B*15:17 [22] = assay: as above; details: source organism: Bacillus anthracis
# HLA-B*27:05 = assay: as above; details: source organism: Bacillus anthracis
# HLA-A*11:01 [23] = assay: IEDB peptide-MHC binding, purified MHC/competitive/fluorescence; filed as Kd, often an IC50 or EC50 that approximates it; ≥ and ≤ were set here for values at or beyond the usual limits of such assays; details: source organism: Bacillus anthracis str. A0488
# HLA-A*30:01 = assay: as above; details: source organism: Bacillus anthracis str. A0488
# HLA-A*31:01 [24] = assay: as above; details: source organism: Bacillus anthracis str. A0488
# [25] = source organism: Bacillus anthracis str. A0488
# [26] = source organism: West Nile virus
# [27] = source organism: Camelpox virus M-96
# [28] = source organism: Vaccinia virus Copenhagen
# [29] = source organism: Camelpox virus CMS
# [30] = source organism: Vaccinia virus Tian Tan
# [31] = source organism: Tokudaia muenninki
# [32] = source organism: Bacillus anthracis
sequence,measurement,setting,value
WYAPVALLF,Kd,HLA-A*24:02 [1]; [25],≤ 0.0001 µM
YPRYPGVRC,Kd,HLA-B*07:02 [2]; source organism: Influenza A virus (A/nt/60/1968(H3N2)),0.0103 µM
VYAPAGVEL,Kd,HLA-A*24:03; source organism: Mycobacterium tuberculosis,0.0021 µM
same,Kd,HLA-C*04:01; source organism: Mycobacterium tuberculosis C,≥ 20 µM
same,Kd,HLA-C*05:01,≥ 20 µM
YMMDDLEL,IC50,HLA-A*24:02 [3],1.06 µM
same,IC50,HLA-B*35:01,≥ 20 µM
SYHDRRWCF,Kd,HLA-C*07:02; [26],0.017 µM
same,Kd,HLA-A*24:02 [1]; [26],0.0101 µM
ALYSYASAK,Kd,HLA-A*01:01 [4]; [27],≥ 20 µM
same,Kd,HLA-A*03:01,0.0395 µM
same,Kd,HLA-A*11:01 [5]; [27],0.0117 µM
same,Kd,HLA-A*31:01 [6]; [27],0.106 µM
same,Kd,HLA-A*69:01; [27],≥ 20 µM
same,Kd,HLA-B*07:02 [7]; [27],≥ 20 µM
same,Kd,HLA-B*40:01; [27],≥ 20 µM
same,Kd,HLA-B*46:01,≥ 20 µM
same,Kd,HLA-B*48:01; [27],≥ 20 µM
same,Kd,HLA-B*57:01; [27],≥ 20 µM
same,Kd,HLA-B*58:01; [27],≥ 20 µM
same,Kd,HLA-A*02:01 [8]; [28],0.0563 µM
same,Kd,HLA-A*02:06; [28],0.271 µM
same,Kd,HLA-A*26:02 [9]; [28],≥ 20 µM
same,Kd,HLA-A*26:03 [10],0.494 µM
same,Kd,HLA-A*68:02 [11]; [28],≥ 20 µM
same,Kd,HLA-B*08:01 [12],≥ 20 µM
same,Kd,HLA-B*15:01; [28],≥ 20 µM
same,Kd,HLA-B*15:17 [13]; [28],≥ 20 µM
same,Kd,HLA-B*18:01 [14],≥ 20 µM
YYKDDISYF,Kd,HLA-A*02:01 [15],≥ 20 µM
same,Kd,HLA-A*11:01 [5]; [29],≥ 20 µM
same,Kd,HLA-A*24:03; [29],0.0037 µM
same,Kd,HLA-A*26:01,0.579 µM
same,Kd,HLA-A*31:01 [6]; [29],≥ 20 µM
same,Kd,HLA-A*68:02 [16],≥ 20 µM
same,Kd,HLA-A*69:01; [29],≥ 20 µM
same,Kd,HLA-B*08:01 [17],≥ 20 µM
same,Kd,HLA-B*08:02; source organism: Variola virus,≥ 20 µM
same,Kd,HLA-B*18:01 [18],≥ 20 µM
same,Kd,HLA-B*57:01; [29],≥ 20 µM
same,Kd,HLA-B*58:01; [29],≥ 20 µM
same,Kd,HLA-C*07:02; [30],0.029 µM
same,Kd,HLA-A*01:01 [19],1.39 µM
same,Kd,HLA-A*02:06; [30],≥ 20 µM
same,Kd,HLA-A*26:02 [9]; [30],0.0347 µM
same,Kd,HLA-B*07:02 [2]; [30],≥ 20 µM
same,Kd,HLA-B*15:01; [30],≥ 20 µM
same,Kd,HLA-B*15:17 [13]; [30],≥ 20 µM
YYNAFQWAI,Kd,HLA-C*04:01; [31],≥ 20 µM
same,Kd,HLA-C*07:02; [31],0.03 µM
REFEAQNVP,Kd,HLA-A*01:01 [4]; [32],≥ 20 µM
same,Kd,HLA-A*26:02 [20],≥ 20 µM
same,Kd,HLA-A*26:03 [21],≥ 20 µM
same,Kd,HLA-A*69:01; [32],≥ 20 µM
same,Kd,HLA-B*07:02 [7]; [32],≥ 20 µM
same,Kd,HLA-B*08:02; source organism: Bacillus cereus NVH0597-99,≥ 20 µM
same,Kd,HLA-B*08:03,≥ 20 µM
same,Kd,HLA-B*15:17 [22],≥ 20 µM
same,Kd,HLA-B*27:05,≥ 20 µM
same,Kd,HLA-B*40:01; [32],0.294 µM
same,Kd,HLA-B*48:01; [32],≥ 20 µM
same,Kd,HLA-B*57:01; [32],≥ 20 µM
same,Kd,HLA-B*58:01; [32],≥ 20 µM
same,Kd,HLA-A*02:01 [8]; [25],0.145 µM
same,Kd,HLA-A*11:01 [23],0.497 µM
same,Kd,HLA-A*30:01,0.521 µM
same,Kd,HLA-A*31:01 [24],≥ 20 µM
same,Kd,HLA-A*68:02 [11]; [25],2.19 µM
